In the supplement of paper PMC7877785:
± gives the uncertainty stated by the source.

Assay: self-splicing fitness, log relative to wild type (ln ratio); higher = more splicing; Tetrahymena group I intron in knt gene, E. coli kanamycin selection, DiMSum; sequences stand for … in CUCUCU…GGAGGGAAAAGUUAUCAGGCAUGCACCUGGUAGCUAGUCUUUAAACCAAUAGAUUGCAUCGGUUUAAAAGGCAAGACCGUCAAAUUGCGGGAAAGGGGUCAACAGCCGUUCAGUACCAAGUCUCAGGGGAAACUUUGAGAUGGCCUUGCAAAGGGUAUGGUAAUAAGCUGACGGACAUGGUCCUAACCACGCAGCCAAGUCCUAAGUCAACAGAUCUUCUGUUGAUAUGGAUGCAGUUCACAGACUAAAUGUCGGUCGGGGAAGAUGUAUUCUUCUCAUAAGAUAUAGUCGGACCUCUCCUUAAUGGGAGCUAGCGGAUGAAGUGAUGCAACACUGGAGCCGCUGGGAACUAAUUUGUAUGCGAAAGUAUAUUGAUUAGUUUUGGAGUACUCGUGGUCG
How it was run: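 Library with all eight P1ex-region intron nucleotides randomised, intron inside the knt kanamycin-resistance gene on pET-22b(+), in E. coli BL21(DE3). Cells grew overnight at 37°C or 30°C on LB agar with or without 25 μg/mL kanamycin (plus 100 μg/mL carbenicillin, 50 μM IPTG, 0.2% rhamnose), in six replicate transformations. Pooled colonies were amplicon-sequenced on Illumina HiSeq 2500. DiMSum fitness is the error-weighted combination of wild-type-normalised replicate fold changes, kanamycin versus none.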

## GAAGAGCAAUAUUACGUACU
30 °C
  self-splicing fitness (ln): -2.11 ± 0.15
37 °C
  self-splicing fitness (ln): -0.163 ± 0.13

## GAAGAGCAAUAUUACGUUCA
30 °C
  self-splicing fitness (ln): -1.33 ± 0.13
37 °C
  self-splicing fitness (ln): -0.0689 ± 0.13

## GAAGAGCAAUAUUACGUUCU
30 °C
  self-splicing fitness (ln): -3.88 ± 0.29
37 °C
  self-splicing fitness (ln): -2.8 ± 0.27

## GAAUAGCAAUAUUACGAAGU
37 °C
  self-splicing fitness (ln): -2.45 ± 0.2

## GAAUAGCAAUAUUACGACCG
30 °C
  self-splicing fitness (ln): -1.03 ± 0.16
37 °C
  self-splicing fitness (ln): -0.447 ± 0.2

## GAAUAGCAAUAUUACGAUAU
30 °C
  self-splicing fitness (ln): -1.43 ± 0.068
37 °C
  self-splicing fitness (ln): -0.744 ± 0.085

## GAAUAGCAAUAUUACGAUGU
30 °C
  self-splicing fitness (ln): -1.3 ± 0.076
37 °C
  self-splicing fitness (ln): -1.04 ± 0.12

## GAAUAGCAAUAUUACGCAAG
30 °C
  self-splicing fitness (ln): -2.44 ± 0.17
37 °C
  self-splicing fitness (ln): -1.54 ± 0.15

## GAAUAGCAAUAUUACGCACG
30 °C
  self-splicing fitness (ln): -1.22 ± 0.15
37 °C
  self-splicing fitness (ln): -0.764 ± 0.2

## GAAUAGCAAUAUUACGCAUG
30 °C
  self-splicing fitness (ln): -0.0618 ± 0.089
37 °C
  self-splicing fitness (ln): -0.902 ± 0.091

## GAAUAGCAAUAUUACGCCUA
30 °C
  self-splicing fitness (ln): -0.724 ± 0.13
37 °C
  self-splicing fitness (ln): -0.0436 ± 0.16

## GAAUAGCAAUAUUACGCGUG
30 °C
  self-splicing fitness (ln): -1.01 ± 0.075
37 °C
  self-splicing fitness (ln): -0.747 ± 0.094

## GAAUAGCAAUAUUACGGAGC
30 °C
  self-splicing fitness (ln): -3.44 ± 0.26
37 °C
  self-splicing fitness (ln): -1.77 ± 0.21

## GAAUAGCAAUAUUACGGCCG
30 °C
  self-splicing fitness (ln): -0.339 ± 0.18
37 °C
  self-splicing fitness (ln): -0.0585 ± 0.21

## GAAUAGCAAUAUUACGGCCU
30 °C
  self-splicing fitness (ln): -0.86 ± 0.075
37 °C
  self-splicing fitness (ln): 0.112 ± 0.12

## GAAUAGCAAUAUUACGGGUU
30 °C
  self-splicing fitness (ln): -2.48 ± 0.14
37 °C
  self-splicing fitness (ln): -1.86 ± 0.17

## GAAUAGCAAUAUUACGGUAU
30 °C
  self-splicing fitness (ln): -3.54 ± 0.18
37 °C
  self-splicing fitness (ln): -1.32 ± 0.16

## GAAUAGCAAUAUUACGGUUC
30 °C
  self-splicing fitness (ln): -3.69 ± 0.17
37 °C
  self-splicing fitness (ln): -3.25 ± 0.33

## GAAUAGCAAUAUUACGUAAC
30 °C
  self-splicing fitness (ln): -0.941 ± 0.11
37 °C
  self-splicing fitness (ln): -1.63 ± 0.12

## GAAUAGCAAUAUUACGUAGA
30 °C
  self-splicing fitness (ln): -3.35 ± 0.15
37 °C
  self-splicing fitness (ln): -1.55 ± 0.11

## GAAUAGCAAUAUUACGUCAU
30 °C
  self-splicing fitness (ln): -1.07 ± 0.1
37 °C
  self-splicing fitness (ln): -0.865 ± 0.13

## GAAUAGCAAUAUUACGUGAU
30 °C
  self-splicing fitness (ln): -3.48 ± 0.17
37 °C
  self-splicing fitness (ln): -1.27 ± 0.11

## GAAUAGCAAUAUUACGUGGG
30 °C
  self-splicing fitness (ln): -3.86 ± 0.21
37 °C
  self-splicing fitness (ln): -2.81 ± 0.19

## GAAUAGCAAUAUUACGUUGA
30 °C
  self-splicing fitness (ln): -2.6 ± 0.13
37 °C
  self-splicing fitness (ln): -0.487 ± 0.09

## GACAAGCAAUAUUACGAAGG
30 °C
  self-splicing fitness (ln): -4.06 ± 0.19
37 °C
  self-splicing fitness (ln): -2.27 ± 0.19

## GACAAGCAAUAUUACGAGAU
30 °C
  self-splicing fitness (ln): -3.73 ± 0.23
37 °C
  self-splicing fitness (ln): -2.78 ± 0.23

## GACAAGCAAUAUUACGAUAU
30 °C
  self-splicing fitness (ln): -1.33 ± 0.099
37 °C
  self-splicing fitness (ln): -1.4 ± 0.1

## GACAAGCAAUAUUACGAUUC
30 °C
  self-splicing fitness (ln): -0.734 ± 0.083
37 °C
  self-splicing fitness (ln): -0.552 ± 0.12

## GACAAGCAAUAUUACGCAUA
30 °C
  self-splicing fitness (ln): -0.868 ± 0.11
37 °C
  self-splicing fitness (ln): -0.12 ± 0.15

## GACAAGCAAUAUUACGCAUU
30 °C
  self-splicing fitness (ln): -2.91 ± 0.089
37 °C
  self-splicing fitness (ln): -1.96 ± 0.11

## GACAAGCAAUAUUACGCCAA
30 °C
  self-splicing fitness (ln): -2.03 ± 0.14
37 °C
  self-splicing fitness (ln): -1.61 ± 0.12

## GACAAGCAAUAUUACGCCUC
30 °C
  self-splicing fitness (ln): -2.68 ± 0.14
37 °C
  self-splicing fitness (ln): -2.78 ± 0.28

## GACAAGCAAUAUUACGCGGG
30 °C
  self-splicing fitness (ln): -2.84 ± 0.095
37 °C
  self-splicing fitness (ln): -2.52 ± 0.14

## GACAAGCAAUAUUACGCGUU
30 °C
  self-splicing fitness (ln): -4.47 ± 0.34
37 °C
  self-splicing fitness (ln): -3 ± 0.35

## GACAAGCAAUAUUACGCUAA
30 °C
  self-splicing fitness (ln): -3.01 ± 0.23
37 °C
  self-splicing fitness (ln): -2.11 ± 0.2

## GACAAGCAAUAUUACGCUCA
30 °C
  self-splicing fitness (ln): -0.336 ± 0.056
37 °C
  self-splicing fitness (ln): 0.274 ± 0.073

## GACAAGCAAUAUUACGCUGC
30 °C
  self-splicing fitness (ln): -3.6 ± 0.16
37 °C
  self-splicing fitness (ln): -2.87 ± 0.19
